System: MS2 coat protein
Test: apparent KD of MS2 coat protein; designed switch direction (-1 OFF switch, 1 ON switch): -1; higher = weaker reporter binding
Summary of the method: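 Three titration conditions were used: no input, 200 uM small-molecule ligand, and an oligonucleotide input. In each, SNAP-549-labelled MS2 coat protein was raised from 0.7 or 1.5 nM, doubling, to 3 µM over designed RNA switches transcribed on Illumina chips by stalled E. coli RNA polymerase. Curve fits of normalised cluster fluorescence gave values whose per-design median over clusters is the apparent KD.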

[1] = Eterna round: R95, input ligand: microRNA oligo, concentration not stated
[2] = Eterna round: R95, input ligand: FMN 200 uM
[3] = Eterna round: R95, input ligand: none
[4] = input ligand: microRNA oligo, concentration not stated

Sequence	apparent KD of MS2 coat protein [1] [nM]	apparent KD of MS2 coat protein [2] [nM]	apparent KD of MS2 coat protein [3] [nM]	apparent KD of MS2 coat protein (input ligand: FMN 200 uM) [nM]	apparent KD of MS2 coat protein (input ligand: none) [nM]	apparent KD of MS2 coat protein [4] [nM]
CCUCCACAUGAGGAUCACCCAUGUCAGGAUAUCGUGUGUGCGUUUUCGGUCUUUCGCGCGAGAAGGGACGUCUG (puzzle: Exclusion 1)	28.8					
AAGAAACAUGAGGAUCACCCAUGUGAGGAUAUGAAAAAGAAAAGAAAAGAAAGAAGCUUCAGAAGGCACAAAGG [salish99-ex1_r3_030] (puzzle: Exclusion 1)	27.5	38	39.4			
UAGGAGAGAGUGAGGAUAUCCGGAAGAGAGGAUCAGGAGAAGGCACAUGAGGAUCACCCAUGUAAAAGAGGGAA [I think I solved risk of not working] (Eterna round: R97, puzzle: Brourd's mod of Exclusion 4)				63.5	51.9	
ACGCAUUGCCAAAGGUAGUGCGUUACAUGAGGAUCACCCAUGUAGGAUAUGGUAGGCAAAGCUUACCAGAAGGACAUGAUAAUU [Mat - Exclusion NG 3 - Mod of JL - D6] (Eterna round: R96, puzzle: Exclusion NG 3)				227	51.2	44.8
UUAAUACAUGAGGAUCACCCAUGUCAGGAUAUUACGAUUACUCCGUGCCCAUUGAGAGUGAGAAGGGAUAUGGA [Eternabot (L2) Solution 58] (Eterna round: R97, puzzle: Exclusion 1)				19.7	18.1	
GUACUGAAGCUUUGCUUUAAUCGUACAUGAGGAUCACCCAUGUAGGAUAUGGUAGGCUUUGCUUACCAGAAGGACAGAGUGAUC [JL EXNG3 1.24] (Eterna round: R96, puzzle: Exclusion NG 3)				217	136	124
AGUAACUAUCACGAAAGUGAUAGUUACACAAGCAGUGACACAUGAGGAUCACCCAUGUCCUCAUUUGCUCGUCUUAU [Sensor 3 - 29] (puzzle: Sensor v3, turn-off variant 2)	637	614	478			
CCCGCAGGCUUUUUGCUCGACAUGAGGAUCACCCAUGUUGAAUGGGUUGUGUGUGUGUGAUACAUAUAUAUGGUCCU [-26.2, -50.8 kcal, A 19%] (Eterna round: R97, puzzle: Sensor, turn-off variant 1)				242	349	
GCCAGAGCAGGAUAUUCAAUAAUUCACAUGAGGAUCACCCAUGUCCAGCGAAAGCUGGAAGGAGAAGGGCUCUGGC [Fiskers Ex 5 - 3] (puzzle: Exclusion 5)	14.5					
ACAUGUAAUGCAGGAUAUUUGACACAUGAGGAUCACCCAUGUGACCAGAGGAAUUGCUAUGAGUCGAAGAAGGGUAUGUACAUG [Ex NG2 #55] (Eterna round: R96, puzzle: Exclusion NG 2)				56.2	42.9	44.7
CCCGGGCUUGUGAGGAUAUGCGCGCGGAAAUGUGUGUAGAAGGCACAUGAGGAUCACCCAUGUAAGGGCCCGGG [-32.4, -30.4 kcal, A 23%, 6-0] (Eterna round: R97, puzzle: Brourd's mod of Exclusion 4)				19.3	148	
AGGCACUAAGGAUAUACAAAGGUGCUGCGUAUGCUAGCCAGACAUGAGGAUCACCCAUGUAGAAGGUAGGAAUA [EX2 B.14] (Eterna round: R97, puzzle: Exclusion 2)				16.4	16.8	
UUUUUAUAUGAAGGAUAUACUUAACAUGAGGAUCACCCAUGUGGUGUUGUGAGUGAGUGAGUUUAGUAGAAGGUCAAUUAUAUU [JMF's solution 13] (Eterna round: R96, puzzle: Exclusion NG 2)				574	350	316
GGAAUACAUGAGGAUCACCCAUGUAAGGAUAUGCUGAAUAUUACGGAAUAAACGUGCAGCAGAAGGUACAAAGG [Mat - Mod of my Eli Mod D47] (puzzle: Exclusion 1)	83.4	105	125			
AGUACUAACACGUCGGUGUUAGUACAAUAAGCUUGUGAAACAUGAGGAUCACCCAUGUCCUCAUAAGCUCGUCUUAU [salish99_TOv2_r3_080] (puzzle: Sensor v3, turn-off variant 2)	575	17.4	15.5			
CCUCAACAUGAGGAUCACCCAUGUCAGGAUAUGCGAAUUUCAUCAAAAGAUGAAAUUUGCAGAAGGGACUAAGC [Omei Ex1 A33] (Eterna round: R97, puzzle: Exclusion 1)				303	133	
CAGUACUGAGGAUAUACAUGAGGAUCACCCAUGUGUUCCAGCUAGGAAACUAGCAAAAGUAGAAGGCAGUUCUG [salish99_ex3_r3_099x] (puzzle: Exclusion 3)	19.3					
GAUUAACAUGAGGAUCACCCAUGUGAGGAUAUGGACUUGCCCACUUACCCUUUAGAGUCUAGAAGGCGCAUCUC [1986#30] (Eterna round: R97, puzzle: Exclusion 1)				28.7	20.8	
UAUUAGUAAGGAUAUCCUUGCAUGGACGAAAGUCCAUGCAAGGAGAAGGUACAUGAGGAUCACCCAUGUUUAUU [Mod of Fisker 15 - Jieux - Exclusion 4] (Eterna round: R97, puzzle: Exclusion 4)				18	17.4	
GGUACUCAAAGAGUACCAAUACGAACAUGAGGAUCACCCAUGUAGGAUAUGCUACUCAAAGAGUAGCAGAAGGAUAUGAUGGAU [Far Half Aptamer v15] (Eterna round: R96, puzzle: Exclusion NG 3)				60.2	34.2	19.2
GUGCUAUGAGGAUAUACGUUGGUGGGCAUCUGUGUGCUCCUACAUGAGGAUCACCCAUGUAGAAGGCAUGUCAC [LRO-Excl2-20] (puzzle: Exclusion 2)	11.9					
AGCGCUUACGUAGGAUAUGCAUGAGGAUCACCCAUGCAACCACAUUUAACAUGAGGAUCACCCAUGUAGAAGGACGGGUGCGCA [pwkr exNG2 2xF5 1xFMN.2] (Eterna round: R96, puzzle: Exclusion NG 2)				67.8	27.9	20.4
GCAGCGUAUGUAGGAUAUCGGUCAGUUUCUGAUCGAGAAGGACAUGAGGAUCACCCAUGUUAAGUCAUGCGUGAGCAUGGCUGC [JL ENG1 3.72] (Eterna round: R96, puzzle: Exclusion NG 1)				317	31.4	23.8
AAAGAAAAGAAAGGAUAUAGCGCAGAACCGCAGCUAGAAGGUUCGGUGGGUAUCCUGUAACAUGAGGAUCACCCAUGUAAAGAG [Tire] (Eterna round: R96, puzzle: Exclusion NG 1)				69.9	55.7	48.7
ACAUGUCAUUGAGGAUAUCGCACACAUGAGGAUCACCCAUGUAAACAGAUGCUCAUAAGUGGGUUCGAGAAGGCGAUGUACAUU [Ex NG2 #100] (Eterna round: R96, puzzle: Exclusion NG 2)				318	117	119
AUCAAGGGAGGAUAUACAGUGAACAGUACUAGUCAGGCGGCACAUGAGGAUCACCCAUGUAGAAGGCCCAUGAU [Eternabot (L1) Solution 70] (Eterna round: R97, puzzle: Exclusion 2)				80	24.8	
GAAUAGGCAGGAUAUACAUGAGGAUCACCCAUGUGCCGGCGAAAGGUACGUUCGAAAGGUAGAAGGGCCUAAAC [ChP 13.04.2015 #7] (Eterna round: R96, puzzle: Exclusion 3)				176	41.8	36.7
GCGCGCUAAGGAUAUACAUGAGGAUCACCCAUGUGCGCGCAAAAGCGCCGCGCGCGCGGUAGAAGGUAGGCAAA [Extraordinary-Exclusion 3] (Eterna round: R97, puzzle: Exclusion 3)				16	11.4	
GUUAACGUAGGAUAUUAGUACAUGAACAUGAGGAUCACCCAUGUGAGGUGGGUCUAAGAAUAAGAAGGGCGAAGAA [EX5 #26] (Eterna round: R97, puzzle: Exclusion 5)				317	312	
GGAUUGUCAGGAUAUCUUAUACUUCAUAAGUGAGGAUAAAUAGAGAAGGGACAUGAGGAUCACCCAUGUAAUAA [Exclusion 4 S1] (Eterna round: R97, puzzle: Exclusion 4)				152	36.8	

Source: the supplement of paper PMC9170038
